Experimental data from paper PMC4038064.
Like-named read-outs stand apart in the source and are kept apart here.

Assays:
[1] = molecular target: Neuropilin-1 domains b1b2 (Nrp1-b1b2); experiment: in vitro plate binding assay
[2] = molecular target: Neuropilin-1 domains b1b2 (Nrp1-b1b2); experiment: in vitro plate binding assay; remark: listed apart in the source
[3] = molecular target: Neuropilin-1 domains b1b2 (Nrp1-b1b2); experiment: ITC

Row | IC50 [1] | IC50 [2] | Ka [3] | Kd [3] | dH [3] | stoichiometry N [3] | Molecule
1 | 0.76 µM |  |  |  |  |  | Sema3E.3 peptide (Sema3E, furin cleavage site 3)
2 | 34 µM |  |  |  |  |  | Sema3A.2 peptide (Sema3A, furin cleavage site 2)
3 |  | 28 µM |  |  |  |  | WDQKKPRNDR [Sema3F C-terminal peptide, C-1 aspartate variant (S3F-DR)]
4 |  | 4.7 µM | 101000 M⁻¹ | 10 µM | -17 kcal/mol | 1 | WDQKKPRNPR [Sema3F C-terminal peptide, C-1 proline variant (S3F-PR)]
5 |  | 11 µM |  | 33 µM | -18.5 kcal/mol | 1 | WDQKKPRNRR [Sema3F C-terminal peptide, wild type (S3F-RR)]
